Data as given in patent US20240277864A1 (SORRISO PHARMACEUTICALS, published 2024).
Changes are numbered by the printed parent chain. Names may count otherwise.

T1: Recombinant soluble human IL-6R (human, UniProt P08887 20-365)
T1 construct: extracellular domain; also called sIL-6R; hIL-6R
T1 sequence (looked up): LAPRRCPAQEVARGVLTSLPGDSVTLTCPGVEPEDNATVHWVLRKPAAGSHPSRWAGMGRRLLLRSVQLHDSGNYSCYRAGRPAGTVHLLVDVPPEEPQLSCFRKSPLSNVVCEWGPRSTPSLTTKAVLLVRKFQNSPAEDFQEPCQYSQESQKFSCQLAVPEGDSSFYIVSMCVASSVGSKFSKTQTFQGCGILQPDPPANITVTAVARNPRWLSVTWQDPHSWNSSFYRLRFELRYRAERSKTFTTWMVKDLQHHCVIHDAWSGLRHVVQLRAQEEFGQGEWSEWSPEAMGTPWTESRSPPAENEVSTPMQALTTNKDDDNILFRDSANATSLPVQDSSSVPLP

T2: Membrane-bound IL-6 receptor on TF1 cells (human, UniProt P08887 20-468)
T2 sequence (looked up): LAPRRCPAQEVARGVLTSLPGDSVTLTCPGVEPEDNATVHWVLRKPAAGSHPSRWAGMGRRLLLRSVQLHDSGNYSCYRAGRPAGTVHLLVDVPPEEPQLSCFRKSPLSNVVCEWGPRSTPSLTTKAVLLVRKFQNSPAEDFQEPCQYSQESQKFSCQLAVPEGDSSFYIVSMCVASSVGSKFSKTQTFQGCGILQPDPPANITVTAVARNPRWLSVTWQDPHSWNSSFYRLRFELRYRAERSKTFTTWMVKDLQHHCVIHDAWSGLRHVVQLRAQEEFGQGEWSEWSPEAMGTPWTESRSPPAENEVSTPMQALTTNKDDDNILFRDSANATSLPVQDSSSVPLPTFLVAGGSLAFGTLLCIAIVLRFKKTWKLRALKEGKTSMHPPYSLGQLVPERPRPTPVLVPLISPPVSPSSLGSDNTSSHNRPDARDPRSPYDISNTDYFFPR

B1: 20A11 (VHH)
VHH: EVQLVESGGGLVQPGGSLRLSCAASGSVFKINVMAWYRQAPGKGRELVAGIISGGSTSYADSVKGRFTISRDNAKNTLYLQMNSLRPEDTAVYYCAFITTESDYDLGRRYWGQGTLVTVSS
B2: Tocilizumab (antibody, V domains shown)
VH: QVQLQESGPGLVRPSQTLSLTCTVSGYSITSDHAWSWVRQPPGRGLEWIGYISYSGITTYNPSLKSRVTMLRDTSKNQFSLRLSSVTAADTAVYYCARSLARTTAMDYWGQGSLVTVSS
VL: DIQMTQSPSSLSASVGDRVTITCRASQDISSYLNWYQQKPGKAPKLLIYYTSRLHSGVPSRFSGSGSGTDFTFTISSLQPEDIATYYCQQGNTLPYTFGQGTKVEIKR
B3: ID-38F (VHH)
VHH: DVQLVESGGGLVQPGGSLKLSCAASGFDFSSHWMYWVRQAPGKELEWLSEINTNGLITHYGDSVKGRFTVSRNNAANKMYLELTRLEPEDTALYYCARNQHGLNKGQGTQVTVSS
notes: also called ID38F (S. cerevisiae-produced); anti-TNF ICVD
B4: ID-123V (VHH)
VHH: EVQLVESGGGLVQAGGSTRLTCKASGSISNINSINVMAWYRQAPGKGRELVAIIGKGGGTNYADFVKGRFTISRDAAKNTVYLQMNSLRPEDTAVYYCYADYEDHDSPHNASWGQGTQVTVSS
notes: equivalent to ID-142V except N-terminal Glu (lacks the E1D mutation) and tag; not shown: C-terminal Flag, His tag
B5: ID-142V (VHH)
VHH: B4 VHH with E1D

How the values were obtained:
[1] = target: T1, Recombinant soluble human IL-6R; test: gp130 ELISA: inhibition of binding of sIL-6R/IL-6 complex to coated gp130
[2] = target: T2, Membrane-bound IL-6 receptor on TF1 …; test: cell-based or functional assay
[3] = target: T1, Recombinant soluble human IL-6R; test: Biacore (SPR), soluble human IL-6R flowed over the plate
[4] = target: T1, Recombinant soluble human IL-6R; test: cell-based or functional assay
[5] = target: T1, Recombinant soluble human IL-6R; test: cell-based or functional assay; remark: listed apart in the source
Human TNF-alpha [6] = target: T3, Human TNF-alpha (human, UniProt P01375 77-233); test: competition ELISA: inhibition of TNF-alpha binding to coated TNFR-2 (Enbrel)
T3 construct: there it was coupled to the chip via covalently linked DNA in one orientation; also called hTNF-alpha; h-TNF-alpha
Description: An ELISA plate was coated overnight with 1.5 μg/ml TNFR-2 (Enbrel) in PBS overnight at 4° C. The plate was then washed and blocked in 1% BSA for >1 h at RT before being used. […] Finally, the plate was washed again and 100 μl/well of TMB were added. Colour development was stopped by adding 50 μl/well of 0.5M H₂SO₄ and OD450 nm measurements were taken using a BMG Labtek Fluostar Omega plate reader.

Human TNF-alpha [7] = target: T3, Human TNF-alpha; test: switchSENSE, TNFa immobilised, fluorescence
Human TNF-alpha [8] = target: T3, Human TNF-alpha; test: switchSENSE, ID-38F immobilised, TNF-alpha flowed, fluorescence
Human TNF-alpha [9] = target: T3, Human TNF-alpha; test: cell-based or functional assay
[10] = target: T1, Recombinant soluble human IL-6R; test: Biacore (SPR), ICVD fixed to the sensor plate, soluble human IL-6R flowed; ICVD on the chip, soluble human IL-6R flowed
Description: The ICVD was fixed to the Biacore sensor plate and soluble human IL-6R was flowed over the plate to detect binding.

T3 sequence (P01375 77-233 limits assumed): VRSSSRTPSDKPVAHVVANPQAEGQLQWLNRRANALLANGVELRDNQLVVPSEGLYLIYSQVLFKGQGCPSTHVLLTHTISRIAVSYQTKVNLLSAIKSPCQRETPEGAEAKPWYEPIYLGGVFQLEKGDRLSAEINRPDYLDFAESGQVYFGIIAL

Binder | EC50 [1] | TF-1 cell assay EC50 nM (5 ng/ml IL-6) [2] | EC50, nM, M1 cell assay (% inhibition of the IL-6+IL-6R response) [4] | M1 cellular assay EC50 [5] | further results
B1 | 0.22 nM | 0.56 nM | – | – | –
B2 | 1.83 nM | 1.12 nM | 4.16 nM | 5.36 nM | Kd [3]: 0.39 nM
B3 | – | – | – | – | EC50 (Human TNF-alpha [6]): 0.383 nM; kon (Human TNF-alpha [7]): 8.1e+06 M⁻¹ s⁻¹; Kd (Human TNF-alpha [8]): 0.0168 nM; koff (Human TNF-alpha [8]): 4.2e-05 s⁻¹; kon (Human TNF-alpha [8]): 2.5e+06 M⁻¹ s⁻¹; EC50 (nM), L929 assay (neutralisation of TNF-alpha-induced cytotoxicity) (Human TNF-alpha [9]): 0.127 nM
B4 | 0.498 nM | 4.5 nM | 2.31 nM | 4.2 nM | Kd [10]: 1.1 nM
B5 | – | – | 4.05 nM | – | –
